Measured values published in patent publication US20150344570A1 (published 2015).

B1: GpH7-B3 variant T335_07I/GpL16-k0 (antibody, human IgG1, kappa)
heavy: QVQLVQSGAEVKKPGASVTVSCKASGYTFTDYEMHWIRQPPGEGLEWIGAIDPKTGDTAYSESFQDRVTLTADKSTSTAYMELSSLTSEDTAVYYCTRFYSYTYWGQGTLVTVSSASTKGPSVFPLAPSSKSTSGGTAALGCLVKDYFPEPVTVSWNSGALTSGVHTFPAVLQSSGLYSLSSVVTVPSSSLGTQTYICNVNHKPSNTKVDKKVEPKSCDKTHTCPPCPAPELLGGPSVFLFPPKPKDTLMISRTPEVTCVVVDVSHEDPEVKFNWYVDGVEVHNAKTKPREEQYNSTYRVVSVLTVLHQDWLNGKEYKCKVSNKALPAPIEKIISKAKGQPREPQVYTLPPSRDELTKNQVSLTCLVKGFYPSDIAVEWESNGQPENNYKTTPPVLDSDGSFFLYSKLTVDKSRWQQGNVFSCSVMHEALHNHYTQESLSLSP
light: DIVMTQSPLSLPVTPGEPASISCQASESLVHSNRNTYLHWYLQKPGQSPQLLIYKVSNRFSGVPDRFSGSGSGTDFTLKISRVEAEDVGVYYCSQNTHVPPTFGQGTKVEIERTVAAPSVFIFPPSDEQLKSGTASVVCLLNNFYPREAKVQWKVDNALQSGNSQESVTEQDSKDSTYSLSSTLTLSKADYEKHKVYACEVTHQGLSSPVTKSFNRGEC
notes: both H chains altered; also called Ho Ab T335_07I
B2: GpH7-B3 variant K334_09D/GpL16-k0 (antibody, human IgG1, kappa)
heavy: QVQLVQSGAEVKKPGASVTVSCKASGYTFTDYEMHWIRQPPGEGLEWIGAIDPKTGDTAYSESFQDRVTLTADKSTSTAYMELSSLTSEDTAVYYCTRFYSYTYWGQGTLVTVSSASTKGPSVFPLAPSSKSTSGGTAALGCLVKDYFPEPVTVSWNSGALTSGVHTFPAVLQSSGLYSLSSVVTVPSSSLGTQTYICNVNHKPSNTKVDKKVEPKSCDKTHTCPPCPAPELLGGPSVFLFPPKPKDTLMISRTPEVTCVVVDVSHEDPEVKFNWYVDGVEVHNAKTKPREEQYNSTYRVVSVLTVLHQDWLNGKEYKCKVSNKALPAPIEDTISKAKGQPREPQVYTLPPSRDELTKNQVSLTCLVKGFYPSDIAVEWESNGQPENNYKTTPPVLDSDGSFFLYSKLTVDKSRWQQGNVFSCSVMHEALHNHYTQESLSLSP
light: B1 light
notes: both H chains altered; also called Ho Ab K334_09D
B3: GpH7-B3 variant T335_10E/GpL16-k0 (antibody, human IgG1, kappa)
heavy: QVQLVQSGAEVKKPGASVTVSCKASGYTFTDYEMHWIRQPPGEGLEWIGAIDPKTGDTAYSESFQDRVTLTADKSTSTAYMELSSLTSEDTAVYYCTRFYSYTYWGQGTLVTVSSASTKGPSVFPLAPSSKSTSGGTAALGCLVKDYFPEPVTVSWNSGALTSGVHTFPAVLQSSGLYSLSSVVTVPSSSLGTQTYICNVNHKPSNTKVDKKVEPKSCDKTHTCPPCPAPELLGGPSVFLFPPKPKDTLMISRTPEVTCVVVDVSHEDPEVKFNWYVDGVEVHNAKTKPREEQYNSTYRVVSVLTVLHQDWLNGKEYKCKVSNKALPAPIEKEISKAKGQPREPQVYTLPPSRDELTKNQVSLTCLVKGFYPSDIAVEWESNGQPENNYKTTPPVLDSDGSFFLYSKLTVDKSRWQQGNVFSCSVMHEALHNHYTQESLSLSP
light: B1 light
notes: both H chains altered; also called Ho Ab T335_10E
B4: GpH7-B3 variant S298_14T/GpL16-k0 (antibody, human IgG1, kappa)
heavy: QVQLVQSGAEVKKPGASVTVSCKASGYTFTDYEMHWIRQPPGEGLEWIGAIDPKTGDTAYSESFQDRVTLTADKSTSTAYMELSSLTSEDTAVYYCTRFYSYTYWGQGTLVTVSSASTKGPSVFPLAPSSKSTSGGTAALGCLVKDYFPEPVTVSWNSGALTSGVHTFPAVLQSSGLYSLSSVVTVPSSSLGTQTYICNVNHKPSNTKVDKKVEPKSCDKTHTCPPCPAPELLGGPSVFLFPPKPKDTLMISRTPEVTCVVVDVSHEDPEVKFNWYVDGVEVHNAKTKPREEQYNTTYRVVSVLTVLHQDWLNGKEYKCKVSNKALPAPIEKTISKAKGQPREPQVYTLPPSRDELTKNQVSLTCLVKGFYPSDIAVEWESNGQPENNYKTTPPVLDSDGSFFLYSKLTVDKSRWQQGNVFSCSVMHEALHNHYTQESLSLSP
light: B1 light
notes: both H chains altered; also called Ho Ab S298_14T
B5: GpH7-B3 variant S267_09D/GpL16-k0 (antibody, human IgG1, kappa)
heavy: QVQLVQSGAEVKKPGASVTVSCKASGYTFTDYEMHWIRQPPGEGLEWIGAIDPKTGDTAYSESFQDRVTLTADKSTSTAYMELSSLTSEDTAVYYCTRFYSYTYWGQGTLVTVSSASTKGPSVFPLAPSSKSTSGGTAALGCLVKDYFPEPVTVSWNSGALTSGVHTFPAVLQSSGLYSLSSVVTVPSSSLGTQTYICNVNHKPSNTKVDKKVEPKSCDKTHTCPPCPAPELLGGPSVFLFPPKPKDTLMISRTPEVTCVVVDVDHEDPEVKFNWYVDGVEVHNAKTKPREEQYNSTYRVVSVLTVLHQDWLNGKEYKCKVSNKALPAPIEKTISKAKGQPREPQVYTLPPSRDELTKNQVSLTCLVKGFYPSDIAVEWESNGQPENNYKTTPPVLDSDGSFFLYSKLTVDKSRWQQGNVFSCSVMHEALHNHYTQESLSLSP
light: B1 light
notes: both H chains altered; also called Ho Ab S267_09D
B6: GpH7-B3 variant S337_18N/GpL16-k0 (antibody, human IgG1, kappa)
heavy: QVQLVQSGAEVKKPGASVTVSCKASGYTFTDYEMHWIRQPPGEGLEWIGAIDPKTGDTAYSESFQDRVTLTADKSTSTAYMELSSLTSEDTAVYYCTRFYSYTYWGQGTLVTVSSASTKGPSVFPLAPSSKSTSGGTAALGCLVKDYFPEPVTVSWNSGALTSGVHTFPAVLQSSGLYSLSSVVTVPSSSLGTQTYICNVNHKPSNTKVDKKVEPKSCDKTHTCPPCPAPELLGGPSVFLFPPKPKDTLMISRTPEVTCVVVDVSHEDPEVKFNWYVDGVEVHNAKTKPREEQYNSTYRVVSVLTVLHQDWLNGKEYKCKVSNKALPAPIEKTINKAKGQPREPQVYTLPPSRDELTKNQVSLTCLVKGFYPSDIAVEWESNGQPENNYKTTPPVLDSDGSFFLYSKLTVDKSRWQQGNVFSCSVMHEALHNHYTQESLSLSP
light: B1 light
notes: both H chains altered; also called Ho Ab S337_18N
B7: GpH7-B3 variant S324_15Y/GpL16-k0 (antibody, human IgG1, kappa)
heavy: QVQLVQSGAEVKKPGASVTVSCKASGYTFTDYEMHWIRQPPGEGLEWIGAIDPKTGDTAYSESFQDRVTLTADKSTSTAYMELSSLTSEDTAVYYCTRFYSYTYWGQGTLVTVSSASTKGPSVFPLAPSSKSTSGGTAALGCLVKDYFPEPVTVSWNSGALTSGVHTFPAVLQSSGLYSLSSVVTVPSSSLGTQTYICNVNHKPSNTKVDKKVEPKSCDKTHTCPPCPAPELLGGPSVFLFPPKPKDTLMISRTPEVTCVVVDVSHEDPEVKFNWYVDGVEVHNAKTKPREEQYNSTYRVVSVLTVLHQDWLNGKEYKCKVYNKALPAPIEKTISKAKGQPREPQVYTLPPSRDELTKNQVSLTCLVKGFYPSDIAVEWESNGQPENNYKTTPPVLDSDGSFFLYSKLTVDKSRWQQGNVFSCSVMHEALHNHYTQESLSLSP
light: B1 light
notes: both H chains altered; also called Ho Ab S324_15Y
B8: GpH7-B3 variant Q295_14T/GpL16-k0 (antibody, human IgG1, kappa)
heavy: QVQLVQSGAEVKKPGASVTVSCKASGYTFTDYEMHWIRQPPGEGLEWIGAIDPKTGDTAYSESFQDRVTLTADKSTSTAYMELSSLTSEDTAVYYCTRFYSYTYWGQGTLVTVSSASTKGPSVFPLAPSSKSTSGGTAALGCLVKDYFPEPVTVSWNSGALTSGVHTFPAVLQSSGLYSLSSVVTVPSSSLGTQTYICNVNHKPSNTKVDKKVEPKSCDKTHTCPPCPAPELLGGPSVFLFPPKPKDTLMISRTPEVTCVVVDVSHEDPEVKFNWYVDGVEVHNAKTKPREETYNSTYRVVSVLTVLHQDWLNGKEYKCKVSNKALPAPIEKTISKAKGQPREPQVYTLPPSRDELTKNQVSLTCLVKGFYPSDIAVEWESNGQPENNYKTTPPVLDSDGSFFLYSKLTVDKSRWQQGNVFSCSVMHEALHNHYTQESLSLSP
light: B1 light
notes: both H chains altered; also called Ho Ab Q295_14T
B9: GpH7-B3 variant S337_09D/GpL16-k0 (antibody, human IgG1, kappa)
heavy: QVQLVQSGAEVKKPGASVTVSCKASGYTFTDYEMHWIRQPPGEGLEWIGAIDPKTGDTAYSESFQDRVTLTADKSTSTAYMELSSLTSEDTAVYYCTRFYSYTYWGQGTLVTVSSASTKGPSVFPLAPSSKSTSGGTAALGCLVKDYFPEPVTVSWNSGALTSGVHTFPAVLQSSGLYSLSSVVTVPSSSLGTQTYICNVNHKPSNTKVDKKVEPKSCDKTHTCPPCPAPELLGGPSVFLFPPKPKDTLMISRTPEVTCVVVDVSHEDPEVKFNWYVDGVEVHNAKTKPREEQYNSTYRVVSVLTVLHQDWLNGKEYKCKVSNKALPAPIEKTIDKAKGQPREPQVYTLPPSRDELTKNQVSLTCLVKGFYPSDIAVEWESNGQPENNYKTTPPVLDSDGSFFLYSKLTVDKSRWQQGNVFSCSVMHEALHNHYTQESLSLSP
light: B1 light
notes: both H chains altered; also called Ho Ab S337_09D
B10: GpH7-B3 variant S324_16H/GpL16-k0 (antibody, human IgG1, kappa)
heavy: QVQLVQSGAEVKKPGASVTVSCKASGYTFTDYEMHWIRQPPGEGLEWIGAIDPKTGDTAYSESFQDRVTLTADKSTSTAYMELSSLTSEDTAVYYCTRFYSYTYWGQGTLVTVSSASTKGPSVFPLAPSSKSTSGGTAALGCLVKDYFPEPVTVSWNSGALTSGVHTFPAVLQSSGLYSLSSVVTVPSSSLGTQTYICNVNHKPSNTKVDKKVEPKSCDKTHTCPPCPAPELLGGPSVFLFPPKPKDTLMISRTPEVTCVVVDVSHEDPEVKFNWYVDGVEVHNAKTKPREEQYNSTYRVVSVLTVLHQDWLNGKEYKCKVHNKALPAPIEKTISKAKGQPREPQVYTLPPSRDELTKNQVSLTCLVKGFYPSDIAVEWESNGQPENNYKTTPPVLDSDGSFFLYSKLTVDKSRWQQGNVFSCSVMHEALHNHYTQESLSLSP
light: B1 light
notes: both H chains altered; also called Ho Ab S324_16H
B11: GpH7-B3 variant S267_02A/GpL16-k0 (antibody, human IgG1, kappa)
heavy: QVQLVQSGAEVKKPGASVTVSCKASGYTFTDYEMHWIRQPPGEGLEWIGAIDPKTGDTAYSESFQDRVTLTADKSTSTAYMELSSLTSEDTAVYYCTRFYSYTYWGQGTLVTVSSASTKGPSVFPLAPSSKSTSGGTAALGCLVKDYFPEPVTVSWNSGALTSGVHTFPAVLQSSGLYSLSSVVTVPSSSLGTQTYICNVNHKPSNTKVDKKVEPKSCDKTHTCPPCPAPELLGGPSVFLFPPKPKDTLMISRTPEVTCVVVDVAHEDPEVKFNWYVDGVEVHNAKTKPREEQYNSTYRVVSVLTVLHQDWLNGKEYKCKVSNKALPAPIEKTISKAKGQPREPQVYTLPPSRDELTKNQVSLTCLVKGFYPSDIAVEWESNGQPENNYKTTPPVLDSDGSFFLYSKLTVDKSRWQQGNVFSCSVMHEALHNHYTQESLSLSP
light: B1 light
notes: both H chains altered; also called Ho Ab S267_02A
B12: GpH7-B3 variant S337_10E/GpL16-k0 (antibody, human IgG1, kappa)
heavy: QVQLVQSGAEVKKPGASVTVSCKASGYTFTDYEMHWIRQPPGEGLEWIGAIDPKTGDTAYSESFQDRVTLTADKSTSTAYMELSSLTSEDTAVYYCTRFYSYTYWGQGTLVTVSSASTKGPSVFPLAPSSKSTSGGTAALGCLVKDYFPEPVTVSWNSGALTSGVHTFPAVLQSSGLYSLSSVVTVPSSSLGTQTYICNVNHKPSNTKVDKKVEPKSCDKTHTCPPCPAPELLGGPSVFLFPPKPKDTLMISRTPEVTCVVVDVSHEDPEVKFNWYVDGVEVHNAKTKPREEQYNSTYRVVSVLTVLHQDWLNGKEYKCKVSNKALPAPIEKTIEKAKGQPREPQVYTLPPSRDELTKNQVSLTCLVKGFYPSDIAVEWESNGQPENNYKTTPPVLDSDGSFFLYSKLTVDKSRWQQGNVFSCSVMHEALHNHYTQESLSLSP
light: B1 light
notes: both H chains altered; also called Ho Ab S337_10E
B13: GpH7-A5/GpH7-B3 variant A330_05P/GpL16-k0 (antibody, human IgG1, kappa)
heavy 1: not shown
heavy 2: not shown
light: B1 light
notes: one H chain altered; also called He Ab A330_05P
B14: GpH7-A5/GpH7-B3 variant I336_06M/GpL16-k0 (antibody, human IgG1, kappa)
heavy 1: not shown
heavy 2: not shown
light: B1 light
notes: one H chain altered; also called He Ab I336_06M
B15: GpH7-A5/GpH7-B3 variant E333_03V/GpL16-k0 (antibody, human IgG1, kappa)
heavy 1: not shown
heavy 2: not shown
light: B1 light
notes: one H chain altered; also called He Ab E333_03V
B16: GpH7-A5/GpH7-B3 variant L234_04F/GpL16-k0 (antibody, human IgG1, kappa)
heavy 1: not shown
heavy 2: not shown
light: B1 light
notes: one H chain altered; also called He Ab L234_04F
B17: GpH7-A5/GpH7-B3 variant I332_01G/GpL16-k0 (antibody, human IgG1, kappa)
heavy 1: not shown
heavy 2: not shown
light: B1 light
notes: one H chain altered; also called He Ab I332_01G
B18: GpH7-A5/GpH7-B3 variant A330_07I/GpL16-k0 (antibody, human IgG1, kappa)
heavy 1: not shown
heavy 2: not shown
light: B1 light
notes: one H chain altered; also called He Ab A330_07I
B19: GpH7-A5/GpH7-B3 variant S267_02A/GpL16-k0 (antibody, human IgG1, kappa)
heavy 1: not shown
heavy 2: not shown
light: B1 light
notes: one H chain altered; also called He Ab S267_02A
B20: GpH7-A5/GpH7-B3 variant S324_02A/GpL16-k0 (antibody, human IgG1, kappa)
heavy 1: not shown
heavy 2: not shown
light: B1 light
notes: one H chain altered; also called He Ab S324_02A
B21: GpH7-A5/GpH7-B3 variant L234_07I/GpL16-k0 (antibody, human IgG1, kappa)
heavy 1: not shown
heavy 2: not shown
light: B1 light
notes: one H chain altered; also called He Ab L234_07I
B22: GpH7-A5/GpH7-B3 variant L234_09D/GpL16-k0 (antibody, human IgG1, kappa)
heavy 1: not shown
heavy 2: not shown
light: B1 light
notes: one H chain altered; also called He Ab L234_09D
B23: GpH7-A5/GpH7-B3 variant E333_02A/GpL16-k0 (antibody, human IgG1, kappa)
heavy 1: not shown
heavy 2: not shown
light: B1 light
notes: one H chain altered; also called He Ab E333_02A
B24: GpH7-A5/GpH7-B3 variant S337_04F/GpL16-k0 (antibody, human IgG1, kappa)
heavy 1: not shown
heavy 2: not shown
light: B1 light
notes: one H chain altered; also called He Ab S337_04F
B25: GpH7-A5/GpH7-B3 variant K326_08L/GpL16-k0 (antibody, human IgG1, kappa)
heavy 1: not shown
heavy 2: not shown
light: B1 light
notes: one H chain altered; also called He Ab K326_08L
B26: GpH7-A5/GpH7-B3 variant T335_19Q/GpL16-k0 (antibody, human IgG1, kappa)
heavy 1: not shown
heavy 2: not shown
light: B1 light
notes: one H chain altered; also called He Ab T335_19Q
B27: GpH7-A5/GpH7-B3 variant S337_15Y/GpL16-k0 (antibody, human IgG1, kappa)
heavy 1: not shown
heavy 2: not shown
light: B1 light
notes: one H chain altered; also called He Ab S337_15Y
B28: GpH7-A5/GpH7-B3 variant T335_20W/GpL16-k0 (antibody, human IgG1, kappa)
heavy 1: not shown
heavy 2: not shown
light: B1 light
notes: one H chain altered; also called He Ab T335_20W
B29: GpH7-A5/GpH7-B3 variant T335_13S/GpL16-k0 (antibody, human IgG1, kappa)
heavy 1: not shown
heavy 2: not shown
light: B1 light
notes: one H chain altered; also called He Ab T335_13S
B30: GpH7-A5/GpH7-B3 variant I336_02A/GpL16-k0 (antibody, human IgG1, kappa)
heavy 1: not shown
heavy 2: not shown
light: B1 light
notes: one H chain altered; also called He Ab I336_02A
B31: GpH7-A5/GpH7-B3 variant S337_20W/GpL16-k0 (antibody, human IgG1, kappa)
heavy 1: not shown
heavy 2: not shown
light: B1 light
notes: one H chain altered; also called He Ab S337_20W
B32: GpH7-A5/GpH7-B3 variant L234_20W/GpL16-k0 (antibody, human IgG1, kappa)
heavy 1: not shown
heavy 2: not shown
light: B1 light
notes: one H chain altered; also called He Ab L234_20W
B33: GpH7-A5/GpH7-B3 variant S267_09D/GpL16-k0 (antibody, human IgG1, kappa)
heavy 1: not shown
heavy 2: not shown
light: B1 light
notes: one H chain altered; also called He Ab S267_09D
B34: GpH7-A5/GpH7-B3 variant H268_02A/GpL16-k0 (antibody, human IgG1, kappa)
heavy 1: not shown
heavy 2: not shown
light: B1 light
notes: one H chain altered; also called He Ab H268_02A
B35: GpH7-A5/GpH7-B3 variant I336_18N/GpL16-k0 (antibody, human IgG1, kappa)
heavy 1: not shown
heavy 2: not shown
light: B1 light
notes: one H chain altered; also called He Ab I336_18N
B36: GpH7-A5/GpH7-B3 variant E333_20W/GpL16-k0 (antibody, human IgG1, kappa)
heavy 1: not shown
heavy 2: not shown
light: B1 light
notes: one H chain altered; also called He Ab E333_20W
B37: GpH7-A5/GpH7-B3 variant V266_08L/GpL16-k0 (antibody, human IgG1, kappa)
heavy 1: not shown
heavy 2: not shown
light: B1 light
notes: one H chain altered; also called He Ab V266_08L
B38: GpH7-A5/GpH7-B3 variant T335_16H/GpL16-k0 (antibody, human IgG1, kappa)
heavy 1: not shown
heavy 2: not shown
light: B1 light
notes: one H chain altered; also called He Ab T335_16H
B39: GpH7-A5/GpH7-B3 variant E333_13S/GpL16-k0 (antibody, human IgG1, kappa)
heavy 1: not shown
heavy 2: not shown
light: B1 light
notes: one H chain altered; also called He Ab E333_13S
B40: GpH7-A5/GpH7-B3 variant I336_08L/GpL16-k0 (antibody, human IgG1, kappa)
heavy 1: not shown
heavy 2: not shown
light: B1 light
notes: one H chain altered; also called He Ab I336_08L
B41: GpH7-A5/GpH7-B3 variant P238_10E/GpL16-k0 (antibody, human IgG1, kappa)
heavy 1: not shown
heavy 2: not shown
light: B1 light
notes: one H chain altered; also called He Ab P238_10E
B42: GpH7-A5/GpH7-B3 variant E333_04F/GpL16-k0 (antibody, human IgG1, kappa)
heavy 1: not shown
heavy 2: not shown
light: B1 light
notes: one H chain altered; also called He Ab E333_04F
B43: GpH7-A5/GpH7-B3 variant S337_14T/GpL16-k0 (antibody, human IgG1, kappa)
heavy 1: not shown
heavy 2: not shown
light: B1 light
notes: one H chain altered; also called He Ab S337_14T
B44: GpH7-A5/GpH7-B3 variant K334_09D/GpL16-k0 (antibody, human IgG1, kappa)
heavy 1: not shown
heavy 2: not shown
light: B1 light
notes: one H chain altered; also called He Ab K334_09D
B45: GpH7-A5/GpH7-B3 variant T335_15Y/GpL16-k0 (antibody, human IgG1, kappa)
heavy 1: not shown
heavy 2: not shown
light: B1 light
notes: one H chain altered; also called He Ab T335_15Y
B46: GpH7-A5/GpH7-B3 variant I332_06M/GpL16-k0 (antibody, human IgG1, kappa)
heavy 1: not shown
heavy 2: not shown
light: B1 light
notes: one H chain altered; also called He Ab I332_06M
B47: GpH7-A5/GpH7-B3 variant K326_07I/GpL16-k0 (antibody, human IgG1, kappa)
heavy 1: not shown
heavy 2: not shown
light: B1 light
notes: one H chain altered; also called He Ab K326_07I
B48: GpH7-A5/GpH7-B3 variant P271_01G/GpL16-k0 (antibody, human IgG1, kappa)
heavy 1: not shown
heavy 2: not shown
light: B1 light
notes: one H chain altered; also called He Ab P271_01G
B49: GpH7-A5/GpH7-B3 variant G236_15Y/GpL16-k0 (antibody, human IgG1, kappa)
heavy 1: not shown
heavy 2: not shown
light: B1 light
notes: one H chain altered; also called He Ab G236_15Y
B50: GpH7-A5/GpH7-B3 variant P238_09D/GpL16-k0 (antibody, human IgG1, kappa)
heavy 1: not shown
heavy 2: not shown
light: B1 light
notes: one H chain altered; also called He Ab P238_09D
B51: GpH7-A5/GpH7-B3 variant Q295_14T/GpL16-k0 (antibody, human IgG1, kappa)
heavy 1: not shown
heavy 2: not shown
light: B1 light
notes: one H chain altered; also called He Ab Q295_14T
B52: GpH7-A5/GpH7-B3 variant I336_03V/GpL16-k0 (antibody, human IgG1, kappa)
heavy 1: not shown
heavy 2: not shown
light: B1 light
notes: one H chain altered; also called He Ab I336_03V
B53: GpH7-A5/GpH7-B3 variant E333_09D/GpL16-k0 (antibody, human IgG1, kappa)
heavy 1: not shown
heavy 2: not shown
light: B1 light
notes: one H chain altered; also called He Ab E333_09D
B54: GpH7-A5/GpH7-B3 variant H268_18N/GpL16-k0 (antibody, human IgG1, kappa)
heavy 1: not shown
heavy 2: not shown
light: B1 light
notes: one H chain altered; also called He Ab H268_18N
B55: GpH7-A5/GpH7-B3 variant K334_01G/GpL16-k0 (antibody, human IgG1, kappa)
heavy 1: not shown
heavy 2: not shown
light: B1 light
notes: one H chain altered; also called He Ab K334_01G

target: T1, FcγRIIIa extracellular domain with C-terminal His tag (human, UniProt P08637 17-208); assay: SPR (Biacore), both H chains altered; HoCon Ab GpH7-B3/GpL16-k0 = 100
T1 sequence (P08637 17-208): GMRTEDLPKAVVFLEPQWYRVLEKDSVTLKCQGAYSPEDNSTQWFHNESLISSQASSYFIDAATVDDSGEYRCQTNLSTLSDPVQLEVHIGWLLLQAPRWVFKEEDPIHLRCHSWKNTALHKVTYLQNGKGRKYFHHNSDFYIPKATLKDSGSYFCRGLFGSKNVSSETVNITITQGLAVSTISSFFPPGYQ

Binder	Ho/Con_3a
B1	107%
B2	150%
B3	102%
B4	107%
B5	160%
B6	102%
B7	100%
B8	108%
B9	106%
B10	103%
B11	145%
B12	100%

target: T1, FcγRIIIa extracellular domain with …; assay: SPR (Biacore), one H chain altered; HeCon Ab GpH7-A5/GpH7-B3/GpL16-k0 = 100

Binder	He/Con_3a
B13	155%
B14	109%
B15	103%
B16	118%
B17	111%
B18	103%
B19	150%
B20	104%
B21	103%
B22	117%
B23	105%
B24	101%
B25	114%
B26	102%
B27	102%
B28	102%
B29	105%
B30	111%
B31	101%
B32	107%
B33	181%
B34	122%

Binder	He/Con_3a
B35	104%
B36	101%
B37	118%
B38	104%
B39	103%
B40	106%
B41	105%
B42	101%
B43	101%
B44	160%
B45	104%
B46	101%
B47	139%
B48	113%
B49	121%
B50	106%
B51	115%
B52	112%
B53	112%
B54	104%
B55	121%
